Results: patent US20210380678A1 (SURROZEN OPERATING, published 2021)

T1: human ASGR1 extracellular domain (hASGR1 ECD) (human, UniProt P07306 62-291, biotinylated (His-Avi tag))
T1 construct: His-Avi tag at the N-terminus, biotinylated for BLI; also called human ASGR1 ECD
T1 sequence: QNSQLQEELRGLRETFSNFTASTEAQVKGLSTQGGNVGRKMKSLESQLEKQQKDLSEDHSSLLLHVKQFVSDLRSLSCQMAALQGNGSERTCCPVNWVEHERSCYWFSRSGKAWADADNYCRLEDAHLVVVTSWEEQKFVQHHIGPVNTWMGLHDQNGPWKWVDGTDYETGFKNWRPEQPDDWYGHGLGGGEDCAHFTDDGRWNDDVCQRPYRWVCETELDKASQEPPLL

T2: cynomolgus ASGR1 extracellular domain (cynoASGR1 ECD) (cynomolgus, UniProt P07306 62-291 (human entry))
T2 construct: Cloned with a His/Avi tag
T2 chain: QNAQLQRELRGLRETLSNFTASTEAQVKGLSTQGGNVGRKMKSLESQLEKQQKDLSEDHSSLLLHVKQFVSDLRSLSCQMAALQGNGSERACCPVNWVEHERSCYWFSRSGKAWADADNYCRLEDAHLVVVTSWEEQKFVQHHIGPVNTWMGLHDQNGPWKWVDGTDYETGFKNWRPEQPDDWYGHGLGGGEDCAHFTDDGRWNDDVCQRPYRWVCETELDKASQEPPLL

T3: human ZNRF3 extracellular domain (hZNRF3 ECD) (human, UniProt Q9ULT6 56-219, biotinylated (His-Avi tag))
T3 construct: Expressed with a His-Avi tag at the N-terminus and biotinylated; also called ZRNF3
T3 sequence: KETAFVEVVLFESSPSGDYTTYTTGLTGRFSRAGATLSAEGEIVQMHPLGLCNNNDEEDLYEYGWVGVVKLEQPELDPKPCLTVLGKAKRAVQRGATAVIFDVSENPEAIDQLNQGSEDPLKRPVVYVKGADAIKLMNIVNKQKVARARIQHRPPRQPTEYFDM


What was measured:
[1] = target: T1, human ASGR1 extracellular domain …; assay: hybridoma screening on recombinant ECD
[2] = target: T2, cynomolgus ASGR1 extracellular domain …; assay: hybridoma screening on recombinant ECD
[3] = target: T3, human ZNRF3 extracellular domain …; assay: BLI (Octet) KD grade: ** = 1 uM > KD >= 100 nM
Method: (§1) Binding characterization of recombinant Fabs or IgG' s was carried out using Bio-Layer Interferometry (BLI) using the Octet Red 96 platform (PALL ForteBio, Fremont, Calif.) with streptavidin (SA) coated biosensors (PALL ForteBio,). […] Following immobilization, sensors were dipped into samples containing test molecules at seven concentrations. Values for KD were determined by fitting the resulting data with a 1:1 binding model.

[4] = target: T3, human ZNRF3 extracellular domain …; assay: BLI (Octet), biotinylated antigen on SA sensor, 1:1 fit
Method: as §1

| binding result [1] | binding result [2] | KD [3] | Kd [4] | Binder |
| --- | --- | --- | --- | --- |
| binds | binds |  |  | LP1-1N15 (antibody, V domains shown, Hybridoma antibody as screened) VH: EVQLQQSGPELVKPGASVKMSCKASGYTFTDYYMNWVKQSHGESLEWIGRVIPSNGGTNYNQKFKGKATLTVDKSLTTAYMQLNSLTSEDSAVYFCARGMDYWGPGTSVTVSS VL: DIKMTQSPSSMYASLGERVTITCKASQDINSHLSWFQQKPGKSPKTLIIRANRLVDGVPSRFSGSGSGQDYSLTISSPEYEEMGIYYCLQYDEFPFTFGGGTKLEIK |
| binds | binds |  |  | LP1-1P13 (antibody, V domains shown, Hybridoma antibody as screened) VH: EVQLQQSGPELVKPGASVKISCKASGYSFTDYFMNWVKQSHGKSLEWIGRFNPFNGQTFYNQEFKGKATLTVDKSSSTAHMELRSLTSEDSAVYYCARRGRYDVYYVLDYWGQGTSVTVSS VL: DIQMTQSPASLSASVGQTVIITCRTSENIYSNLAWYQQKQGKSPQLLVYAATNLADGVPSRFSGSGSGTQYYLKINSLQSEDFGSYYCQHFWGSTWTFGGGTKLDIK |
| binds | binds |  |  | LP1-2I22 (antibody, V domains shown, Hybridoma antibody as screened) VH: EVQLQQSGPELVKPGASVKISCKASGYSFTGYFMNWVKQSHGKSLEWIGRFNPFNGQTFYNQEFKGKATLTVDKSSDTAHMELRSLTSEDSAVYYCARRGRYDVYYALDYWGQGTSVTVSS VL: DIQMTQSPASLSASVGETVIITCRASENIYSNLAWYQQKQGKSPQLLVYGATNLADGVTSRFSGSGSGTQFSLKIDSLQSEDFGSYYCQHFWGTTWTFGGGTKLEIK |
| binds | binds |  |  | LP1-1P5 (antibody, V domains shown, Hybridoma antibody as screened) VH: QVQLQQSGPELVRPGTSVKISCKASGYTFLTYWMNWVKQRPGQGLEWIGQIFPATGITYYSEMFKDKATLTEDTSSTTAYMQLSSLTSEATAVYFCARRRAYHSNFFDYWGQGTTLTVSS VL: DIVMTQSQKFMSTSVGDRVSVTCKASQNVGTNVAWYQQKPGQSPKALIYSASYRYSGVPDRFTGSGSGTDFTLTISNVQSEDLAEYFCQQYNSYPLTFGAGTKLELK |
| binds | binds |  |  | LP1-2E12 (antibody, V domains shown, Hybridoma antibody as screened) VH: DVQLQESGPGLVKPSQSLSLTCSVTGYSITSGYYWNWIRQFPGNKLEWMGSIGYDDTNHYNPSLKNRISITRDTSKNQFFLKLNSVTTEDTATYYCAGDYPFAFWGQGTLVTVSA VL: DVVVTQTPLSLPVSFGDRVSISCRSSQSLANSYGNTYLSWYLHKPGQSPQLLIYGISNRFSGVPDRFSGSGSGTDFTLKISTIKPEDLGMYYCLQGTHQPLTFGAGTKLELK |
| binds | binds |  |  | LP1-2I13 (antibody, V domains shown, Hybridoma antibody as screened) VH: EVQLVESGGGLVKPGGSRKLSCAASGFTFSDYGMHWVRQAPEKGLEWVAYISSGSSTIYYADTVKGRFTISRDNAKNTLFLQMTSLRSEDTAMYYCSRKGGFGDYEKSYAMDYWGQGTSVTVSS VL: DIQMTQSPASLSASVGETVTITCRASENIYSYLVWYQQKQGKSPQLLVYNAKTLAEGVPSRFSGSGSGTQFSLKINSLQPEDFGSYYCQHHYGTWTFGGGIKLEIK |
| binds | binds |  |  | LP1-3A24 (antibody, V domains shown, Hybridoma antibody as screened) VH: EVQLQQSGPELVKPGASVKMSCKASGYTFTDYYINWVRQSHGKSLEWIGRVIPSNGGSNYNQKFKGKATLTVDKSLSTAYMHLNSLTSEDSAVYYCATQLGRWGQGTLVTVSA VL: DIVMTQSQKFMSTSVGDRVSVTCKASQNVGSNVAWFQQKPGQSPKALIYSSSYRYSGVPDRFTGSGSGTDFTLTITNVQSEDLAEYFCQQYNSFPLTFGAGTKLELK |
| binds | binds |  |  | LP1-3E20 (antibody, V domains shown, Hybridoma antibody as screened) VH: QVQLQQSGAELAKPGASVKMSCKASGYTFTSYWIHWVKQRPGQGLEWIGYINPSSGYAEYNQKFKVRATLTADKSSSTAYMQLSSLTSEDSAVYYCARESYYSFDYTMDYWGQGTSVTVSS VL: DIKMTQSPSSMYASLGERVTITCKASQDINSYLSWFQQKPGKSPKTLIYRANRLVDGVPSRFSGSGSGQDYSLTISSLEYEDMGIYYCLQYDDLWTFGGGTKLEIK |
| binds | binds |  |  | LP1-6H3 (antibody, V domains shown, Hybridoma antibody as screened) VH: QAYLQQSGAELVRPGASVKMSCKASGYTFSRFDMHWVKQTPRQGLEWIGVIYPGNGDTSYNQKFRDKASLTVDKSSSTAYMQLSSLTSEDSAVYFCASSYYGNPWGQGTTLTVSS VL: not shown |
| binds | binds |  |  | LP1-7B13 (antibody, V domains shown, Hybridoma antibody as screened) VH: EVQLQQSGPEVVKPGASVKMSCKTSGFTFTDYYMNWVKQGHGKSLEWIGRVNPSNDDTRYNQKFKGKATLTVDKSLSTAYMQLNSLTSEDSAVYYCTRWFYFDYWGQGTTLTVSS VL: DIVLTQSPATLSVTPGDRVSLSCRASQSISNYLHWYQQKSHESPRLLIKFASQSISGIPSRFSGSGSGTDFTLTINSVETEDFGMYFCQQSNSWPLTFGAGTKLELK |
| binds | binds |  |  | LP1-7I20 (antibody, V domains shown, Hybridoma antibody as screened) VH: EVKLVESGGGLVQPGGSLSLSCAASGFTFTDYYMSWVRQPPGKALEWLALIRNKANGYTTEYSASVKGRFTISRDNSQSILYLQMNALRAEDSATYYCAVTYGAYWGQGTLVTVSA VL: DIQMTQSPASLSASVGETVTITCRTSENIYSYLAWYQQKQGKSPQLLVYNAKTLAKGVPSRFSGSGSGTQFSLKINGLQPEDFGNYYCQHHYGTPYTFGGGTKVEIK |
| binds | binds |  |  | LP1-8M24 (antibody, V domains shown, Hybridoma antibody as screened) VH: QVQLQQSGAELARPGASVKLSCKASGYTFTNYGINWVKQRTGQGLEWIGEIFPRSDNTFYNEKFKGKATLTADKSSTTAYMELRSLTSEDSAVYFCARKGRDYGTSHYFDYWGQGTTLTVSS VL: DIQMTQSPASLSVSVGETVTITCRISENIYSNLAWYQQKQGKSPHLLVYAAINLADGVPSRFSGSGSGTQFSLKINSLQSEDFGSYYCQHFWGTPFTFGSGTKLEIK |
| binds | binds |  |  | LP1-9C3 (antibody, V domains shown, Hybridoma antibody as screened) VH: QVTLKESGPGILQPSQTLSLTCSFSGFSLSTSYMGVSWIRKPSGKGLEWLAHIFWDDDKRYNPSLKSRLTISKDTSSNQVFLMITSVETADTATYYCGGPYYPFTYWGQGTLVTVSA VL: DVVVTQTPLSLPVSFGDQVSISCRSSQSLANSYGNTYLSWYLHKPGQSPQLLIYGISNRFSGVPDRFSGSGSGTDFTLKISTIKPEDLGIYYCLQATHQPWTFGGGTKLEIK |
| binds | binds |  |  | LP1-9M16 (antibody, V domains shown, Hybridoma antibody as screened) VH: EVQLQQSGPELVKPGASVKMSCKASGYTFTDYYMNWVKQSHGKSLEWIGRVNPNNGGSNYNQKFKGKATLTVDKSLSTAYMQLNSLTSEDSAVYYCASRNFDVWGAGTTVTVSS VL: DIKMTQSPSSMYASLGERVTITCKASQDINSYLSWFQQKPGKSPKTLIYRANRLADGVPSRFSGSGSGQDYSLTISNLEYEDMGIYYCLQYDEFPLTFGAGTKLELK |
| binds | binds |  |  | LP1-10C22 (antibody, V domains shown, Hybridoma antibody as screened) VH: EVQLVESGGDLVKPGGSLKLSCAASGFTFSSYGMSWVRQTPDKRLEWVASISSGGSYTYYPDSVKGRFTISRDNAQNTLYLQMSSLKSEDTAMYYCVRHEEYGKSGFAYWGQGTLITVSA VL: DVLMTQTPLSLPVSLGDQASISCRSSQGIVHSNGNIYLEWYLQKPGQSPKLLIYKVSNRFSGVPDRFSGSGSGTDFTLKISRVEAEDLGVYYCFQGSHVPPTFGGGTKLEIK |
|  |  | 100 to 1000 nM | 256 nM | 028S-B04 (antibody, V domains shown) VH: QVQLVQSGAEVKKPGASVKVSCKASGYTFRRYPMHWVRQAPGQGLEWMGIINPSGGSTSYAQKFQGRVTMTRDTSTSTVYMELSSLRSEDTAVYYCARDKVGAIDYWGQGTLVTVSS VL: DIQMTQSPSSLSASVGDRVTITCRASQGISNYLAWYQQKPGKAPKLLIYAASSLQRGVPSRFSGSGSGTDFTLTISSLQPEDFATYYCQQSYSTPLTFGGGTKVEIK |
| binds | binds |  |  | LP1-1F8 (antibody, V domains shown, Hybridoma antibody as screened) VH: EVKLVESGGGLVKPGGSLKLSCAASGFTFSTYTMSWVRQTPAKRLEWVATISSIGVNTYYPDSVKGRFTISRDNARNTLYLQVSSLRSEDTAMYYCARHVDYYDGISFDYWGQGTTLTVSS VL: DIVMSQSPSSLAVSAGEKVTMSCKSSQSLFNSRTRKNYLAWYQQKPGQSPKLLIYWASTRESGVPDRFTGSGSGTDFTLTISSVQAEDLAVYYCKQSYYLLTFGAGTKLELK |
